Test results taken from PMC2904616.

Substrate: CC(C)=CCC/C(C)=C/CC/C(C)=C/CO[P@@](=O)(O)OP(=O)(O)O
Assay: purified protein
Type: biochemical, Streptomyces avermitilis
Details: MgCl2; labelled compound ([1-3H]FPP)

B1: SAV_76 (avermitilol synthase) (Streptomyces avermitilis MA-4680 = NBRC 14893) (protein)
chain: MPQDIDFGLPAPAGISPGLEATRRHNLGWVRRLGLVGDGPSLAWYTSWDMPRLAACGFPHARGAALDLCADAMAFFFVFDDQFDGPLGRDPARAARVCRRLTGIVHGAGPGPGADACSAAFADVWARSTDGAHPGWVARTAHEWEYYFAAQAHEAINRLRGTPGDMESYLQVRRGIAGTDLPLSLGERAAGITVPAAAFHSPQLRIMREAAIDVTLMCNDVYSLEKEEARGDMDNLVLVIEHARRCTRDEAVTAARGEVARRVIRFEQLAREVPALCAQLGLSAVERAHVDTYLGVMEAWMSGYHAWQTQTRRYTGAPHVLPSTGPGYFDEVLPT
Km: 1.06 ± 0.11 µM
kcat: 0.040 ± 0.001 s⁻¹
